Measured values from patent publication US12617870B2, “Methods of reversing ticagrelor activity” (SFJ Pharmaceuticals X, LTD., priority 2018, dated 2026).
Where “and” joins values, the source holds several entries; their conditions need not be identical. Equal entries are not always repeated. Entries after “also recorded” stand apart in the source; their conditions may differ.

Assays:
[1] = tested on: platelet aggregation (ticagrelor antiplatelet activity); type: in vivo, human
Method: Platelet function was assessed using light transmission aggregometry (LTA), VerifyNow, and vasodilator stimulated phosphoprotein (VASP) assays before and after 48 hours of ticagrelor administration […] Cohorts 7 to 10 received an 18-gram fixed dose of PB2452 via various infusion regimens or placebo. Infusions of PB2452 in these cohorts were initiated 2 hours after the last ticagrelor pretreatment dose to coincide with the peak concentration of ticagrelor. (Gurbel (2009). Subjects in all cohorts were randomized in a 3:1 ratio to receive PB2452 or placebo. The primary efficacy outcome was the effectiveness of PB2452 in reversing the antiplatelet effect of ticagrelor by analyzing platelet aggregation using light transmission aggregometry at multiple time points before and after PB2452 or placebo administration in ticagrelor pretreated subjects. Secondary efficacy outcomes were the effectiveness of ticagrelor reversal assessed using VerifyNow and the vasodilator stimulated phosphoprotein phosphorylation immunoassay (VASP). The sample size of 64 was based on clinical and practical considerations and not on a formal statistical power calculation. The sample size was considered sufficient to adequately assess the safety, efficacy, and pharmacokinetic profiles of PB2452 and the pharmacokinetic and pharmacodynamic profiles of ticagrelor. Reversal of antiplatelet effect was evaluated by comparing the mean percent of baseline platelet aggregation between PB2452 and placebo using Wilcoxon rank-sum test. Multiplicity was adjusted using the Bonferroni method. Correlations between each pair of the platelet function tests were evaluated using Pearson's correlation and Spearman's rank correlation coefficient. Mean data from subjects receiving placebo were pooled across cohorts for all presentations. Categorical variables are summarized by their frequencies and percentages, and continuous variables are presented with the number of subjects with non-missing data, mean, standard deviation, median, minimum, and maximum. Descriptive statistics are presented for each cohort, and pooled placebo and PB2452 data. For pharmacodynamic data, platelet aggregation results were compared between each cohort and pooled placebo data (cohorts 4 to 6 and cohort 7 to 10 were pooled separately). All analyses were performed with SAS software, version 9.4 (SAS Institute).

[2] = PLATO, cited from earlier work
[3] = Phase 1 healthy volunteer study: pharmacokinetics of total ticagrelor; type: in vivo, human
Method: Plasma samples for determining total concentration of ticagrelor and its active metabolite, TAM (or ARC-124910XX) will be collected from subjects in Cohorts 4 through 10 before dosing (within 10 minutes prior to the initiation of the study drug infusion [Hour 0], and up to 48 hours following the initiation of study drug infusion. Specific collection times for each cohort are listed in the table below: […]

P2Y12 receptor signaling = test: Phase 1 healthy volunteer study: VASP phosphorylation ELISA (PRI); details: human, in vivo
Description: Secondary Objectives: 1) To determine the pharmacokinetics of ascending doses of IV PB2452 in the presence and absence of ticagrelor; 2) To determine the pharmacokinetics of ticagrelor and its active metabolite TAM in the presence and absence of PB2452; 3) To assess the effectiveness of a single IV PB2452 dose in reversing ticagrelor antiplatelet activity by measuring P2Y12 reaction units (PRU) with VerifyNow™ P2Y12 assay and platelet reactivity index (PRI) with vasodilator stimulated phosphoprotein (VASP) phosphorylation assay by enzyme-linked immunosorbent assay (ELISA); 3) To evaluate the pharmacokinetics and pharmacodynamics of restarting a single dose of oral ticagrelor 24 hours after IV PB2452 administration if a sixth dose of ticagrelor is given; 4) To evaluate the immunogenicity potential of PB2452
VASP by ELISA: 1) PRU at each assessment point; 2) Percent of baseline in PRU; 3) Maximal PRU; 4) Time to maximal PRU; 5) Time to 60%, 80%, 90% of baseline PRU
(§1) The primary efficacy outcome was the effectiveness of PB2452 in reversing the antiplatelet effect of ticagrelor by analyzing platelet aggregation using light transmission aggregometry at multiple time points before and after PB2452 or placebo administration in ticagrelor pretreated subjects. Secondary efficacy outcomes were the effectiveness of ticagrelor reversal assessed using VerifyNow and the vasodilator stimulated phosphoprotein phosphorylation immunoassay (VASP).

[4] = Phase 1 healthy volunteer study: safety, treatment-emergent adverse events; type: in vivo, human
Description: Safety Assessments: Safety and tolerability will be assessed by monitoring and recording of AEs, clinical laboratory test results (hematology, coagulation, serum chemistry, and urinalysis), vital sign measurements (systolic and diastolic blood pressures, oral body temperature, respiratory rate, and heart rate), 12-lead ECG results, cardiac telemetry monitoring, immunogenicity, and physical examination findings.
(§2) The primary safety outcome was the frequency and severity of treatment emergent adverse events (AEs) associated with PB2452 with or without oral ticagrelor pretreatment. Clinical laboratory test results, vital sign measurements, 12-lead ECG and continuous telemetry results, and physical examination findings were also assessed at multiple timepoints from screening to the end of the 28-day safety follow-up period. Immunogenicity was assessed before and at 7 and 28 days after PB2452 administration.

[5] = Phase 1 healthy volunteer study: immunogenicity (anti-drug antibodies); type: in vivo, human
Method: as §2
Other secondary outcomes included assessment of the PB2452 and ticagrelor pharmacokinetic profiles and evaluation of PB2452 immunogenicity at day 7 and 28 post-infusion.

[6] = tested on: platelet reactivity (VerifyNow P2Y12); test: Phase 1 healthy volunteer study: VerifyNow P2Y12 platelet reactivity (PRU); type: in vivo, human; details: sustained for 24 hours
Description: Secondary Objectives: 1) To determine the pharmacokinetics of ascending doses of IV PB2452 in the presence and absence of ticagrelor; 2) To determine the pharmacokinetics of ticagrelor and its active metabolite TAM in the presence and absence of PB2452; 3) To assess the effectiveness of a single IV PB2452 dose in reversing ticagrelor antiplatelet activity by measuring P2Y12 reaction units (PRU) with VerifyNow™ P2Y12 assay and platelet reactivity index (PRI) with vasodilator stimulated phosphoprotein (VASP) phosphorylation assay by enzyme-linked immunosorbent assay (ELISA); 3) To evaluate the pharmacokinetics and pharmacodynamics of restarting a single dose of oral ticagrelor 24 hours after IV PB2452 administration if a sixth dose of ticagrelor is given; 4) To evaluate the immunogenicity potential of PB2452 […]
as §1

[7] = Phase 1 healthy volunteer study: pharmacokinetics of PB2452; type: in vivo, human
Method: Plasma Collection: Blood samples for PK analysis of PB2452 in plasma will be collected from all subjects at the following time points: before dosing (within 10 minutes prior to the initiation of study drug infusion and up to 28 days after the initiation of study drug infusion. Specific collection times for each cohort are listed in the table below: […]

[8] = of the 48 subjects given PB2452

For CCCSc1nc(N[C@@H]2C[C@H]2c2ccc(F)c(F)c2)c2nnn([C@@H]3C[C@H](OCCO)[C@@H](O)[C@H]3O)c2n1 [ticagrelor, (1S,2S,3R,5S)-3-[7-{[(1R,2S)-2-(3,4-difluorophenyl)cyclopropyl]amino}-5-(propylthio)-3H-[1,2,3]triazolo[4,5-d]pyrimidin-3-yl]-5-(2-hydroxyethoxy)cyclopentane-1,2-diol], the “suppression of platelet aggregation” value ([1]; after 48 hours of ticagrelor (180 mg loading + 90 mg twice daily), placebo subjects) is listed as ~80% and 80-85%, the “platelet aggregation remained suppressed after ticagrelor was stopped” value ([1]; placebo subjects) is listed as 24 h and the “patients with fatal or life-threatening major bleeding events” value ([2]; patients with ACS, both treatment groups) is listed as 5.8%. The “patients with fatal or life-threatening bleeding event” value ([2]; urgent surgery, could not wait three days for ticagrelor to wash out) was “approximately 50%”, the “patients with major bleeding related to procedures like CABG” value [2] was “approximately 9%” and the “patients with spontaneous major bleeding events not related to any medical procedure” value [2] was “approximately 3%”. The “increase of mean ticagrelor concentrations compared with ticagrelor alone” value ([3]; PB2452 18 gram dose level with 8- to 16-hour infusions) was 5.6 fold, the “increase of mean concentration of circulating ticagrelor” value ([3]; in the presence of PB2452 (Cohorts 4-6, FIG. 11B)) was 2-5.6 fold and the “time of peak total ticagrelor concentration after an oral dose” value ([3]; subjects receiving ticagrelor alone) was “approximately 2 hours”. The “peak total ticagrelor concentration” value ([3]; subjects receiving ticagrelor alone, oral dose) was 900 ng/mL.

B1: PB2452: recombinant human IgG1λ monoclonal Fab antibody fragment that binds specifically to ticagrelor and TAM (antibody, listed as Homo sapiens)
heavy: QVQLQESGAEVKKPGSSVRVSCKASGGTFDSYSIHWVRQAPGQGLEWMGGIIPAFGTLSSAQDFQARVTISADKSTSTAYMELSGLRSEDTAVYYCARGSFDYYFWSASHPPNDALAIWGQGTLVTVSSASTKGPSVFPLAPSSKSTSGGTAALGCLVKDYFPEPVTVSWNSGALTSGVHTFPAVLQSSGLYSLSSVVTVPSSSLGTQTYICNVNHKPSNTKVDKRVEPKSCDK
light: QSVVTQPPSVSAAPGQKVTISCSGSNSDIGNNYVSWYQQLPGTAPKLLIYDNNKRPSGIPDRFSGSKSGTSATLAITGLQAGDEADYYCGTWLYDRAVGLFGGGTKVTVLGQPKAAPSVTLFPPSSEELQANKATLVCLISDFYPGAVTVAWKADSSPVKAGVETTTPSKQSNNKYAASSYLSLTPEQWKSHRSYSCQVTHEGSTVEKTVAPTECS
modifications: PB2452 VH with CH1; PB2452 VL with CL
For B1, the “time to complete restoration of platelet function” value ([1]; 3 g or 9 g PB2452 IV over 30 minutes) was no more than 30 min, the “reversal sustained for” value ([1]; 10-minute IV bolus followed by 16-hour infusion, multiple assays) was “over 20 hours” and the onset of reversal ([1]; 10-minute IV bolus followed by 16-hour infusion, multiple assays, vs placebo P<0.0001) was no more than 5 min. For the same molecule, the “time to significantly increased mean platelet aggregation” value ([1]; Cohort 7, 18 g: 3.0 g bolus followed by 8 hour infusion) was no more than 2 h, the “time to reversal after initiation of the infusion” value ([1]; Cohorts 8 to 10, 18 g: 6.0 g bolus followed by infusions for 12 or 16 hours) was no more than 5 min and the “mean platelet aggregation restored, relative to pre-ticagrelor baseline” value ([1]; LTA, all post-treatment time points up to 20 hours) was ≥ 80 % of baseline. For the same molecule, the “rebound in platelet activity after drug cessation” value ([1]; human, in vivo) was “no evidence of rebound”, the “VASP PRI restored, relative to baseline” value (P2Y12 receptor signaling) was ~100 % of baseline and the “duration of restored VASP PRI” value (P2Y12 receptor signaling) was 20 to 24 h. The “time to restoration of VASP PRI” value (P2Y12 receptor signaling) was no more than 5 min, the “overall safety and tolerability” value ([4]; 0.1 to 18 g IV, healthy subjects) was “safe and well-tolerated” and the “Number of Subjects with at Least 1 TEAE” value ([4]; All PB2452 (N = 48)) was 17 (35.4%) n (%) and 17 (35.4) n (%). For the same molecule, the “Total Number of TEAEs” value ([4]; All PB2452 (N = 48)) was 27, the Abdominal pain ([4]; TEAE, All PB2452 (N = 48)) was 1 (2.1) n (%) and the Acute respiratory failure ([4]; TEAE, All PB2452 (N = 48)) was 1 (2.1) n (%). The Alcohol poisoning ([4]; TEAE, All PB2452 (N = 48)) was 1 (2.1) n (%), the Blood urine present ([4]; TEAE, All PB2452 (N = 48)) was 1 (2.1) n (%) and the Conjunctivitis ([4]; TEAE, All PB2452 (N = 48)) was 1 (2.1) n (%). The Contusion ([4]; TEAE, All PB2452 (N = 48)) was 0 n (%), the Dizziness ([4]; TEAE, All PB2452 (N = 48)) was 1 (2.1) n (%) and the Eyelid irritation ([4]; TEAE, All PB2452 (N = 48)) was 0 n (%). For the same molecule, the Gastroenteritis ([4]; TEAE, All PB2452 (N = 48)) was 1 (2.1) n (%), the Hematuria ([4]; TEAE, All PB2452 (N = 48)) was 1 (2.1) n (%) and the Infusion site bruising ([4]; TEAE, All PB2452 (N = 48)) was 4 (8.3) n (%). The Infusion site extravasation ([4]; TEAE, All PB2452 (N = 48)) was 2 (4.2) n (%), the Infusion site reaction ([4]; TEAE, All PB2452 (N = 48)) was 1 (2.1) n (%) and the “Medical device site reaction” value ([4]; TEAE, All PB2452 (N = 48)) was 3 (6.3) n (%). The Musculoskeletal chest pain ([4]; TEAE, All PB2452 (N = 48)) was 0 n (%), the Nasopharyngitis ([4]; TEAE, All PB2452 (N = 48)) was 1 (2.1) n (%) and the Oropharyngeal pain ([4]; TEAE, All PB2452 (N = 48)) was 1 (2.1) n (%). The Pharyngitis streptococcal ([4]; TEAE, All PB2452 (N = 48)) was 1 (2.1) n (%), the Pneumonia aspiration ([4]; TEAE, All PB2452 (N = 48)) was 1 (2.1) n (%) and the Skin abrasion ([4]; TEAE, All PB2452 (N = 48)) was 1 (2.1) n (%). For the same molecule, the Upper limb fracture ([4]; TEAE, All PB2452 (N = 48)) was 1 (2.1) n (%), the “Vessel puncture site bruise” value ([4]; TEAE, All PB2452 (N = 48)) was 2 (4.2) n (%) and the “deaths or adverse events leading to study drug discontinuation” value ([4]; human, in vivo) was “no deaths or adverse events leading to study drug discontinuation”. The drug-related adverse events ([4]; human, in vivo) was “no drug-related adverse events; also recorded: None of the adverse events was considered related to study drug”, the “study-drug related serious adverse events, dose-limiting toxicities, infusion-related reactions” value ([4]; human, in vivo) was “no study-drug related serious adverse events, dose-limiting toxicities, or infusion-related reactions; also recorded: no serious adverse events or infusion reactions associated with PB2452” and the “effect of antibody titers on PB2452 safety or efficacy” value ([5]; human, in vivo) was “no observed effect”. The “subjects anti-drug antibody positive post-dosing” value [5, 8] was 6 (12.5%) subjects (%), the “subjects with detectable anti-drug antibodies” value [5, 8] was 21 (43.8%) subjects (%) and the “subjects with pre-existing (pre-dose) antibodies” value [5, 8] was 15 (31.3%) subjects (%). The “mean VerifyNow platelet reactivity” value [6] was no less than 180 PRU, the “PB2452 exposure extended for” value ([7]; 18 gram dose level with 8- to 16-hour infusions) was 12 to 24 h and the estimated distribution half-life ([7]; IV, healthy subjects) was 0.86 h. The estimated terminal half-life ([7]; IV, healthy subjects) was 6.9 h, the volume of distribution ([7]; IV, healthy subjects) was “approximately 2.9 L” and the “dose dependence of mean exposure” value ([7]; dose range of 0.1 to 9.0 grams) was “dose-linear increases in mean exposure”.
